# Assay results reported in US9744212B2, “Galectin-3C combination therapy for human cancer” (Texas Tech University System, priority 2011, dated 2017).
# B1: Gal-3C: N-terminally truncated human galectin-3 consisting of 143 carboxy-terminal amino acid residues, SEQ ID NO: 1 (protein)
# chain: GAPAGPLIVPYNLPLPGGVVPRMLITILGTVKPNANRIALDFQRGNDVAFHFNPRFNENNRRVIVCNTKLDNNWGREERQSVFPFESGKPFKIQVLVEPDHFKVAVNDAHLLQYNHRVKKLNEISKLGISGDIDITSASYTMI
# Test system: NF-kB (serine 529 phosphorylated p65 subunit)
# Experiment: Quantification of NF-kappaB activation by flow cytometry in U266 cells
# Assay type: cell-based, human
# Settings: 48 hours
# Protocol: Quantification of NF-kappaB Activation by Flow Cytometry. For measurement of NF-kB activation, 200×10^3 cells were fixed with 2% PFA in ice-cold PBS for 30 minutes. After removal of PFA, cells were permeabilized with 0.3% saponin in PBS on ice for 15 minutes, then washed and resuspended in 50 μL PBS supplemented with 1% BSA. PE-labeled anti-phosphorylated serine 529 p65 antibody (BD Biosciences, San Jose, Calif., USA) or isotype control (final dilution, 1:20) and allowed to incubate on ice in the dark for 30 minutes. Before flow-cytometric analysis cells were washed 3 times in 1-mL cold PBS with 1% BSA.
# FIG. 8A is a dot-plot of NF-kB activation in U266 cells. After 48 hours in the presence of indicated treatments, the levels of active NF-KB (serine 529 phosphorylated p65 subunit) were evaluated in U266 cells by flow cytometry.
molecule,measurement,value
B1,NF-kB activation (phosphorylated active form),did not have a significant effect
